The values below come from the Human Domainome abundance scans (Beltran et al. 2025).

± gives the uncertainty stated by the source.

The labels stand for the following.
B1: Poly(rC)-binding protein 1, residues 278 to 350; numbered along this chain, Q15365 (parent)
chain: TQTTHELTIPNNLIGCIIGRQGANINEIRQMSGAQIKIANPVEGSSGRQVTITGSAASISLAQYLINARLSSE

This data set covers variants of B1. Kind of data set: abundance fitness (aPCA) (normalised: wild type 0, dead -1); higher = more abundant; growth selection in yeast, the domain comes from the species named. To be noted: Homo sapiens.
In the case of I9Q, the abundance fitness was -0.767 ± 0.12.

Turning to T4D, the abundance fitness is -0.284 ± 0.084.

Consider T4Y, for which the abundance fitness turned out to be 0.013 ± 0.1.

As for T4L, the abundance fitness was -0.217 ± 0.055.

For the variant T4W, the abundance fitness was -0.31 ± 0.063.

Turning to T4R, the abundance fitness was -0.155 ± 0.041.

Consider S71A, for which the abundance fitness is -0.037 ± 0.051.

Regarding S71P, the abundance fitness came to 0.024 ± 0.06.

On to S71W, for which the abundance fitness was -0.195 ± 0.075.

Regarding S71Y, the abundance fitness is -0.258 ± 0.14.

S71L: the abundance fitness is -0.184 ± 0.054.

Consider S71K, for which the abundance fitness is -0.03 ± 0.09.

Turning to M31N, the abundance fitness stood at 0.203 ± 0.13.

Regarding M31E, the abundance fitness came to 0.019 ± 0.049.

Take M31W: the abundance fitness is -0.325 ± 0.056.

With M31V, the abundance fitness is -0.126 ± 0.047.

M31D: the abundance fitness was -0.337 ± 0.18.

As to A56T, the abundance fitness was 0.026 ± 0.066.

Regarding A56G, the abundance fitness is -0.077 ± 0.034.

With A56H, the abundance fitness is -0.027 ± 0.089.

For the variant A56W, the abundance fitness was -0.269 ± 0.052.

A56D: the abundance fitness was -0.029 ± 0.06.

As for R69C, the abundance fitness is -0.344 ± 0.18.

In the case of R69A, the abundance fitness is -0.067 ± 0.1.

On to R69H, for which the abundance fitness is -0.405 ± 0.17.

For R69P, the abundance fitness is -0.701 ± 0.22.

As for R69S, the abundance fitness is -0.081 ± 0.096.

As for R69I, the abundance fitness is -0.258 ± 0.24.

R69F: the abundance fitness came to 0.355 ± 0.26.

In the case of G15Q, the abundance fitness is -0.162 ± 0.073.

As to G15H, the abundance fitness is -0.072 ± 0.12.

For the variant G15T, the abundance fitness is -0.03 ± 0.073.

Turning to G15K, the abundance fitness was -0.083 ± 0.083.

In the case of G15V, the abundance fitness is -0.526 ± 0.066.

For the variant N40C, the abundance fitness was -0.085 ± 0.058.

As to N40S, the abundance fitness was -0.012 ± 0.042.

For N40F, the abundance fitness was -0.373 ± 0.096.

Regarding N40E, the abundance fitness amounted to 0.004 ± 0.046.

Take N40A: the abundance fitness was -0.023 ± 0.039.

For N40V, the abundance fitness is -0.266 ± 0.04.

As to C16M, the abundance fitness amounted to 0.092 ± 0.076.

As to C16S, the abundance fitness was -0.042 ± 0.051.

On to C16K, for which the abundance fitness was 0.093 ± 0.079.

With C16Q, the abundance fitness amounted to 0.01 ± 0.055.

As to C16Y, the abundance fitness is -0.209 ± 0.21.

On to I66L, for which the abundance fitness is -0.076 ± 0.13.

I66S: the abundance fitness was -0.721 ± 0.2.

As to R29Q, the abundance fitness was 0.067 ± 0.063.

R29W: the abundance fitness is -1.06 ± 0.16.

In the case of R29I, the abundance fitness was -0.081 ± 0.1.

For the variant R29S, the abundance fitness is -0.046 ± 0.05.

As for R29Y, the abundance fitness is -0.55 ± 0.23.

Regarding R29K, the abundance fitness is -0.18 ± 0.082.

For the variant E73V, the abundance fitness came out at 0.182 ± 0.17.

Regarding E73S, the abundance fitness stood at 0.302 ± 0.21.

As for E73W, the abundance fitness was -0.325 ± 0.45.

On to E73R, for which the abundance fitness is -0.019 ± 0.12.

Regarding Y64P, the abundance fitness was -0.312 ± 0.13.

With Y64V, the abundance fitness was 0.121 ± 0.05.

Turning to G54L, the abundance fitness is -0.877 ± 0.12.

As to G54D, the abundance fitness was -0.834 ± 0.19.

For the variant G54A, the abundance fitness was -0.916 ± 0.083.

Consider G54P, for which the abundance fitness is -0.805 ± 0.12.

G54F: the abundance fitness is -0.507 ± 0.25.

As for G54Y, the abundance fitness was -1.08 ± 0.46.

With G54M, the abundance fitness was -1.02 ± 0.26.

Consider G54W, for which the abundance fitness is -0.912 ± 0.14.

On to L61M, for which the abundance fitness came to 0.001 ± 0.065.

Take L61P: the abundance fitness was -0.943 ± 0.16.

L61T: the abundance fitness is 0.139 ± 0.044.

Consider K37L, for which the abundance fitness was -0.142 ± 0.036.

With K37Y, the abundance fitness was found to be 0.007 ± 0.1.

Take K37N: the abundance fitness came out at 0.032 ± 0.086.

On to K37I, for which the abundance fitness stood at 0.124 ± 0.097.

For K37Q, the abundance fitness was 0.083 ± 0.064.

For the variant K37M, the abundance fitness was -0.065 ± 0.045.

For the variant N26M, the abundance fitness is -0.094 ± 0.047.

Regarding N26K, the abundance fitness is 0.104 ± 0.048.

As for N26H, the abundance fitness was -0.193 ± 0.11.

N26I: the abundance fitness is -0.119 ± 0.096.

For the variant I59M, the abundance fitness was -0.477 ± 0.12.

I59N: the abundance fitness is -0.423 ± 0.22.

For I59Q, the abundance fitness is -0.421 ± 0.08.

Take G47Q: the abundance fitness was 0.054 ± 0.056.

In the case of G47M, the abundance fitness was determined as 0.043 ± 0.041.

Consider G47C, for which the abundance fitness was -0.097 ± 0.062.

Take G47I: the abundance fitness was -0.379 ± 0.18.

Take G47V: the abundance fitness was 0.017 ± 0.029.

G47K: the abundance fitness is -0.01 ± 0.052.

Consider I17Q, for which the abundance fitness is -0.878 ± 0.14.

For the variant I17H, the abundance fitness was -0.831 ± 0.2.

In the case of I17C, the abundance fitness is -0.928 ± 0.26.

With N11H, the abundance fitness is -0.025 ± 0.16.

As for N11A, the abundance fitness is -0.075 ± 0.054.

On to N11P, for which the abundance fitness is -0.347 ± 0.077.

N11F: the abundance fitness was -0.061 ± 0.11.

In the case of S55Q, the abundance fitness was -0.336 ± 0.051.

S55M: the abundance fitness was -0.536 ± 0.1.

Consider S55Y, for which the abundance fitness was -0.119 ± 0.17.

In the case of S55E, the abundance fitness is -0.086 ± 0.034.

As to S55F, the abundance fitness was -0.551 ± 0.33.

On to N67K, for which the abundance fitness was -0.137 ± 0.12.

Consider N67T, for which the abundance fitness is -0.148 ± 0.12.

On to N67H, for which the abundance fitness was -0.146 ± 0.13.

As to N67Y, the abundance fitness was 0.002 ± 0.13.

As to N67A, the abundance fitness was -0.152 ± 0.079.

For N67W, the abundance fitness is -0.208 ± 0.078.

On to N67P, for which the abundance fitness is -0.782 ± 0.26.

On to N12E, for which the abundance fitness is -0.202 ± 0.067.

As for N12P, the abundance fitness is -0.186 ± 0.073.

Consider N12G, for which the abundance fitness is -0.282 ± 0.045.

On to N12L, for which the abundance fitness is -0.35 ± 0.061.

In the case of N12K, the abundance fitness was -0.004 ± 0.063.

As to S58V, the abundance fitness was -0.568 ± 0.052.

For the variant S58P, the abundance fitness was -0.47 ± 0.082.

As for S58E, the abundance fitness came out at 0.052 ± 0.038.

For A34G, the abundance fitness is -0.597 ± 0.079.

Take A34P: the abundance fitness was -0.372 ± 0.15.

On to A34W, for which the abundance fitness is -0.759 ± 0.12.

For A34E, the abundance fitness is -1.24 ± 0.3.

As for A34F, the abundance fitness was -0.447 ± 0.35.

In the case of P10R, the abundance fitness was -0.504 ± 0.061.

Consider P10M, for which the abundance fitness was -0.868 ± 0.17.

Regarding P10V, the abundance fitness was -0.707 ± 0.1.

Turning to P10T, the abundance fitness is -0.549 ± 0.11.

On to P10H, for which the abundance fitness was -0.442 ± 0.19.

Regarding P10L, the abundance fitness was -0.597 ± 0.083.

As for P10W, the abundance fitness was -0.915 ± 0.14.

On to A57Q, for which the abundance fitness worked out at 0.068 ± 0.065.

For A57T, the abundance fitness was -0.125 ± 0.056.

On to A57L, for which the abundance fitness was -0.327 ± 0.055.

For the variant A57P, the abundance fitness is -0.02 ± 0.053.

With A57I, the abundance fitness was -0.127 ± 0.14.

On to A57Y, for which the abundance fitness was -0.194 ± 0.12.

As for A57H, the abundance fitness was found to be 0.051 ± 0.11.

In the case of A57K, the abundance fitness was determined as 0.116 ± 0.051.

Consider T3S, for which the abundance fitness turned out to be 0.119 ± 0.046.

T3P: the abundance fitness was -0.16 ± 0.078.

On to T3E, for which the abundance fitness worked out at 0.285 ± 0.052.

E6A: the abundance fitness worked out at 0.002 ± 0.043.

Regarding E6Y, the abundance fitness was found to be 0.218 ± 0.087.

Consider E6Q, for which the abundance fitness was 0.156 ± 0.077.

In the case of E6W, the abundance fitness is -0.102 ± 0.051.

On to L7C, for which the abundance fitness was -0.208 ± 0.081.

L7G: the abundance fitness was -0.517 ± 0.059.

Regarding L7A, the abundance fitness is -0.504 ± 0.073.

With L7N, the abundance fitness is -0.803 ± 0.39.

Take L7F: the abundance fitness was -0.051 ± 0.087.

Regarding I38C, the abundance fitness was -0.793 ± 0.35.

On to I38E, for which the abundance fitness was -0.679 ± 0.085.

Consider I38S, for which the abundance fitness was -0.814 ± 0.13.

I38K: the abundance fitness was -0.612 ± 0.11.

Consider I38D, for which the abundance fitness was -0.754 ± 0.14.

With I38F, the abundance fitness is -0.301 ± 0.16.

Consider L65Y, for which the abundance fitness was -0.093 ± 0.13.

Take L65G: the abundance fitness is -0.416 ± 0.056.

For the variant L65M, the abundance fitness was -0.36 ± 0.18.

Consider L65T, for which the abundance fitness is -0.462 ± 0.14.

In the case of L65D, the abundance fitness was -0.419 ± 0.23.

Consider V42K, for which the abundance fitness is -0.017 ± 0.052.

For V42P, the abundance fitness was -0.192 ± 0.062.

As to V42Q, the abundance fitness was -0.159 ± 0.058.

With V42S, the abundance fitness was -0.028 ± 0.042.

As for V42T, the abundance fitness is -0.1 ± 0.059.

As for T53C, the abundance fitness is -0.137 ± 0.071.

For the variant T53A, the abundance fitness was -0.126 ± 0.036.

As to T53H, the abundance fitness is -0.491 ± 0.15.
